Source: publication PMC10401862, “A high-throughput dual system to screen polyphosphate kinase mutants for efficient ATP regeneration in L-theanine biocatalysis” (Biotechnology for Biofuels and Bioproducts, 2023)
Residue numbers refer to the chain shown, from its start. Names may count otherwise.

B1: ChPPK (Cytophaga hutchinsonii ATCC 33406) (protein)
chain: MATDFSKLSKYVETLRVKPKQSIDLKKDFDTDYDHKMLTKEEGEELLNLGISKLSEIQEKLYASGTKSVLIVFQAMDAAGKDGTVKHIMTGLNPQGVKVTSFKVPSKIELSHDYLWRHYVALPATGEIGIFNRSHYENVLVTRVHPEYLLSEQTSGVTAIEQVNQKFWDKRFQQINNFEQHISENGTIVLKFFLHVSKKEQKKRFIERIELDTKNWKFSTGDLKERAHWKDYRNAYEDMLANTSTKQAPWFVIPADDKWFTRLLIAEIICTELEKLNLTFPTVSLEQKAELEKAKAELVAEKSSD
notes: synthesized gene expressed in E. coli BL21(DE3) from pXMJ-19, Ni-NTA purified
B2: ChPPK (Cytophaga hutchinsonii ATCC 33406; D82N) (protein)
chain: B1 chain with D82N
notes: as for B1
B3: ChPPK (Cytophaga hutchinsonii ATCC 33406; K103E) (protein)
chain: B1 chain with K103E
notes: as for B1

Substrate: Nc1ncnc2c1ncn2[C@@H]1O[C@H](COP(=O)(O)OP(=O)(O)O)[C@@H](O)[C@H]1O
Assay: purified protein
Assay type: biochemical, Cytophaga hutchinsonii
Settings: 100 mM Tris-HCl pH 8.0, 35 °C, MgCl2, ADP 0.1 to 5 mM, polyP6 as co-substrate

| Protein | Km [µM] | kcat [s⁻¹] | kcat/Km [M⁻¹ s⁻¹] |
| --- | --- | --- | --- |
| B1 | 1390 ± 70 | 10 ± 0.13 | 7220 |
| B2 | 950 ± 30 | 15.05 ± 0.04 | 15800 |
| B3 | 810 ± 120 | 19.69 ± 0.12 | 24300 |
